Positions count from the first letter of the chain named.
Key:
NCI-H929 tumours = experiment: NCI-H929 murine xenograft; assay type: in vivo, CB.17 SCID mice
Procedure: FIG. 19: Effect of dose escalation of J6M0 and drug conjugated J6M0 on the growth and establishment of NCI-H929 cells in CB.17 SCID mice. Calculated tumour volumes of NCI-H929 tumours in CB17 SCID mice following twice weekly intraperitoneal dosing of either 50 or 100 ug J6M0 anti-BCMA or IgG1 isotype control unconjugated, or conjugated to MMAE or MMAF for 2 weeks. Data points represent mean tumour volume of n=5 per group
The cell line selected for xenograft studies was NCI-H929 which is sensitive to ADC and ADCC killing in vitro. Studies were carried out in immunocompromised CB.17 SCID mice which lack T and B cells but maintain NK cells to allow for ADCC activity.
In order to independently analyze both the ADCC and ADC activities of J6M0 we tested J6M0 antibody in the presence and absence of MMAF or MMAE conjugation. By testing the unconjugated J6M0, any anti-tumour effects could be attributed to some combination of ADDC and functional inhibitory activity.
Mice with NCI-H929 tumours that had reached a volume of 200 mm^3 on average were treated with a human IgG1 control or the J6M0 antibody (unconjugated, MMAE or MMAF) twice weekly at a dose of 50 ug or 100 ug, for 2 weeks.

Human commercial BCMA [1] = biological target: T1, Human commercial BCMA (Homo sapiens, UniProt Q02223); experiment: ProteOn analysis of CA8 chimeric and humanised constructs, commercial human BCMA; assay type: binding; settings: Run 2, commercial human BCMA, 25° C.
T1 construct: purchased US Biological B0410
T1 sequence (Q02223 1-184): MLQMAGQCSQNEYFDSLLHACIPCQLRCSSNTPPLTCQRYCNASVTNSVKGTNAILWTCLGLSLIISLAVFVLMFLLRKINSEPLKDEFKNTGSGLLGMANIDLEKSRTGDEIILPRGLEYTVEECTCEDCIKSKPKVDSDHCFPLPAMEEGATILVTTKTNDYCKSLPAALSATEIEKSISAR
Procedure: (§1) The initial screen of CA8 chimeric and humanised variants was carried out on the ProteOn XPR36 (Biorad). The method was as follows; Protein A was immobilised on a GLC chip (Biorad, Cat No: 176-5011) by primary amine coupling, CA8 variants were then captured on this surface and recombinant human BCMA (in house or commercial US Biological, B0410) materials (run 2 only)) passed over at 256, 64, 16, 4, 1 nM with a 0 nM injection (i.e. buffer alone) used to double reference the binding curves, the buffer used is the HBS-EP buffer. 50 mM NaOH was used to regenerate the capture surface. The data was fitted to the 1:1 model using the analysis software inherent to the ProteOn XPR36. Run 1 corresponds to the first screen of humanised CA8 variants (JO to J5 series) and run 2 to the second screen of humanised CA8 variants (J5 to J9 series). Both runs were carried out at 25° C.

Human commercial BCMA [2] = biological target: T1, Human commercial BCMA; experiment: BIAcore analysis of J6M0 and J9M0, human commercial BCMA; assay type: binding
Procedure: (§2) Protein A was immobilised on a CMS chip (GE Healthcare, Cat No: BR-1005-30) by primary amine coupling and this surface was then used to capture the antibody molecules. Recombinant human BCMA (US Biological, B0410) was used as analyte at 256 nM, 64 nM, 16 nM, 4 nM and 1 nM. Regeneration of the capture surface was carried out using 50 mM NaOH. All binding curves were double referenced with a buffer injection (i.e. 0 nM) the data was fitted to the using the 1:1 model inherent to T100 evaluation software. The run was carried out at 25° C. and 37° C. for experiment 1 and only 37° C. for experiment 2 using HBS-EP as the running buffer.

Cyno in house BCMA [3] = experiment: ProteOn analysis of CA8 chimeric and humanised constructs, cyno in house BCMA; assay type: binding; settings: Run 2, Cyno in house BCMA, 25° C.
Human in house BCMA = biological target: T2, Human in house BCMA (Homo sapiens, UniProt Q02223); experiment: ProteOn analysis of CA8 chimeric and humanised constructs, human in house BCMA; assay type: binding
T2 construct: CD33 signal peptide (N); TEV site (internal); Fc (C); made in house
Procedure: as §1

U266 = experiment: ADCC of afucosylated J6M0, U266; assay type: cell-based, human; settings: PBMC E:T 50:1, 18 hours, one value per assay/donor (A-K)
Procedure: (§3) FIG. 18: ADCC dose response curves of CA8 J6M0 Potelligent against a panel of 5 multiple myeloma lines—Human PBMC were incubated with multiple myeloma target cells in the presence of varying concentrations of CA8 J6M0 potelligent antibody at an E:T ratio of 50:1 for 18 hours. The percentage of target cells remaining in the effector plus target mixture was then measured by FACS using a fluorescently labelled anti-CD138 antibody to detect the target cells and the percent cytotoxicity calculated. Example dose response curves for CA8 J6M0 potelligent against the five multiple myeloma cell lines tested—[…], RPMI8226, JJN-3, OPM-2, and U266. Each data point is from a singlicate value.
(§4) Human PBMC were incubated with multiple myeloma target cells at an E:T ratio of 50:1 in presence of varying concentrations of afucosylated (Potelligent) J6M0 The percentage of target cells remaining in the effector+target cell mixture after 18 hours was measured by FACS using a fluorescently labelled anti-CD138 antibody to detect the target cells and the percent lysis calculated. This is representative of several experiments.

OPM-2 = experiment: ADCC of afucosylated J6M0, OPM-2; assay type: cell-based, human; settings: OPM-2, ADCC, PBMC E:T 50:1, 18 hours; one value per assay/donor (A-K)
Procedure: as §3, §4

[4] = test system: five multiple myeloma target cell lines; experiment: ADCC of afucosylated J6M0 on MM cell lines (panel); assay type: cell-based; settings: human PBMC, E:T ratio 50:1, 18 hours
Procedure: as §3, §4

[5] = test system: Europium labelled ARH77-10B5 cells; experiment: ADCC potency of conjugated, afucosylated J6M0; assay type: cell-based, human; settings: PBMC: target cell ratio 50:1, up to 10000 ng/ml, 2 hours
Procedure: FIG. 17: ADCC activity of ADC J6M0 molecules—Figure showing ADCC assay on J6M0 antibodies using ARH77 BCMA expressing target cells. Human PBMC were incubated with europium labelled ARH77 BCMA transfected target cells in the presence of a range of concentrations of J6M0 WT and potelligent BCMA antibodies conjugated to MMAE, MMAF, or unconjugated Europium release was monitored on the Victor 2 1420 multilabel reader.
Afucosylated J6M0 conjugated to MMAE or MMAF was tested in ADCC assays using BCMA transfectants to ensure that its ADCC activity was not compromised by the conjugation. Europium labelled ARH77-10B5 cells were incubated with various J6M0 WT and Potelligent BCMA antibodies at concentrations up to 10000 ng/ml for 30 minutes prior to the addition of PBMCs (PBMC: target cell ratio 50:1). Two hours later an aliquot of cell media was sampled and mixed with enhancement solution. After 30 minutes on a plate shaker, europium release was monitored on the Victor 2 1420 multi-label reader. Datapoints represent means of triplicate values.

H929 cells = experiment: FACS binding of humanised CA8 to H929 cells; set-up: species or system human; settings: varying concentrations, 20 minutes at RT
Procedure: (§5) ARH77-hBCMA 10B5 BCMA expressing transfectant cells or H929 cells were stained with either chimeric CA8 or humanised variants of CA8 designated J6M0, J6M1, J6M2, J9M0, J9M1, J9M2 at varying concentrations for 20 minutes at RT. Cells were then washed with FACS buffer (PBS+0.5% BSA+0.1% sodium azide) to remove unbound antibody. Cells were incubated with a secondary PE labelled anti-human IgG antibody for 15 minutes at RT and then washed with FACS buffer to remove unbound antibody. Cells were analysed by FACS and mean fluorescence intensity (MFI) values measured to determine binding.

[6] = biological target: T3, ARH77-hBCMA 10B5 BCMA expressing transfectant cells (Homo sapiens, UniProt Q02223); experiment: FACS binding of humanised CA8 to BCMA transfected cells; settings: varying concentrations, 20 minutes at RT
T3 construct: expressed in transfected cells; host or cells: ARH77 (clone 10B5)
T3 sequence (Q02223 1-184): T1 sequence (Q02223 1-184)
Procedure: as §5

Human commercial BCMA [7] = biological target: T1, Human commercial BCMA; experiment: BIAcore analysis J7 to J9 series, human commercial BCMA; assay type: binding; settings: 37° C.
Procedure: as §2, with “nM) and” for “nM)”, “at” for “at 25° C. and”, “C.,” for “C. for experiment 1 and only 37° C. for experiment 2”

Cyno in house BCMA [8] = experiment: BIAcore analysis J7 to J9 series, cyno in house BCMA; assay type: binding; settings: 37° C.
[9] = Run 2, Human in house BCMA, ProteOn, 25° C.

Chain of Cyno in house BCMA (as listed by the source): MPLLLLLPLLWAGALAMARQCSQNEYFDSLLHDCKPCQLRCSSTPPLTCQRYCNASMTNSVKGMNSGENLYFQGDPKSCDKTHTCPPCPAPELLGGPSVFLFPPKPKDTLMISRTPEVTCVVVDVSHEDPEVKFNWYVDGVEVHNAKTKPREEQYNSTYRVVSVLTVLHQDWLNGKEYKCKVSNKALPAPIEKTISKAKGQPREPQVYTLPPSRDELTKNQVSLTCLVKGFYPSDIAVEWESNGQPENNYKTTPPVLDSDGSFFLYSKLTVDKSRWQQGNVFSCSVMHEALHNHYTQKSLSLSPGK
T2 sequence (Q02223 with tags, fused parts or gaps limits assumed): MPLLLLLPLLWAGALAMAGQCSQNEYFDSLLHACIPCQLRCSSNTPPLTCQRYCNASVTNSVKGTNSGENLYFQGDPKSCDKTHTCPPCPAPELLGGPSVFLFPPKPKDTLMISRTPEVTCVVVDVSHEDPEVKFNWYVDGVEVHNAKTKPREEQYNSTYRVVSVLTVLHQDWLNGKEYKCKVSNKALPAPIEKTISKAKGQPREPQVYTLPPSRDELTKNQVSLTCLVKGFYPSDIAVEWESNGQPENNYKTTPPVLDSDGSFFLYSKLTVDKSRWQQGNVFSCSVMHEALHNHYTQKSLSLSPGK

In the case of J6M0-MMAF, the “anti-tumour activity compared with unconjugated J6M0 and J6M0-MMAE” value (NCI-H929 tumours; 50 ug or 100 ug twice weekly for 2 weeks) is reported as “increased anti-tumour activity over both unconjugated J6M0 antibody and J6M0-MMAE conjugate”, the “effect on NCI-H929 tumours” value (NCI-H929 tumours; 100 ug dose twice weekly for 2 weeks, intraperitoneal, tumours 200 mm^3 at start) is reported as “elimination of tumours” and the recurrence of tumour (NCI-H929 tumours; mice maintained for 40 days after the last dose) is reported as “no recurrence of tumour”.

Molecule CA8 humanised J6M0 has a ka (Human commercial BCMA [1]; in M-1s-1 (unit assumed)) of 6.23E+05, a kd (Human commercial BCMA [1]; in s-1 (unit assumed)) of 5.37E−05 and a ka (Human commercial BCMA [2]; 25° C., Experiment 1, in M-1s-1 (unit assumed)) of 1.01E+06. For the same molecule, the kd (Human commercial BCMA [2]; 25° C., Experiment 1, in s-1 (unit assumed)) was 1.22E−04, the ka (Human commercial BCMA [2]; 37° C., Experiment 1, in M-1s-1 (unit assumed)) was 2.12E+06 and the kd (Human commercial BCMA [2]; 37° C., Experiment 1, in s-1 (unit assumed)) was 1.48E−03. The ka (Human commercial BCMA [2]; 37° C., Experiment 2, in M-1s-1 (unit assumed)) was 3.78E+06, the kd (Human commercial BCMA [2]; 37° C., Experiment 2, in s-1 (unit assumed)) was 1.88E−03 and the ka (Cyno in house BCMA [3]; in M-1s-1 (unit assumed)) was 5.64E+04. For the same molecule, the kd (Cyno in house BCMA [3]; in s-1 (unit assumed)) was 3.18E−04, the ka (Human in house BCMA; Run 2, Human in house BCMA, ProteOn, 25° C., in M-1s-1 (unit assumed)) was 2.40E+05 and the kd (Human in house BCMA; Run 2, Human in house BCMA, ProteOn, 25° C., in s-1 (unit assumed)) was 7.40E−05.

In the case of “J6M0 Potelligent: humanised CA8 version J6M0 in afucosylated (Potelligent) form”, the EC50 (U266) is reported as 9.04 ng/mL, the EC50 (OPM-2) is reported as 4.15 ng/mL and the ADCC activity [4] is reported as “showed ADCC activity against all five multiple myeloma target cell lines tested”. For the same molecule, the “ADCC potency (europium release)” value [5] was “lower EC50 and higher maximal lysis”.

B1: CA8 humanised J9M2: humanised CA8 anti-BCMA antibody, VH J9 (SEQ ID NO:29) + VL M2 (SEQ ID NO:35) (antibody, V domains shown)
VH: QVQLVQSGAEVKKPGSSVKVSCKGSGYTFTNYWMHWVRQAPGQGLEWIGATYRGHSDTYYNQKFKGRATLTADTSTSTAYMELSSLRSEDTAVYYCTRGAIYDGYDVLDNWGQGTLVTVSS
VL: DIQLTQSPSSLSASVGDRVTITCSASQDISNYLNWYQQKPGKAPELVIYYTSNLHSGVPSRFSGSGSGTDYTLTISSLQPEDFATYYCQQYRKLPWTFGQGTKLEIKR
modifications: Humansed antibody sequence
In the case of B1, the “dose dependent binding to H929 cells by FACS (MFI)” value (H929 cells) is reported as “all antibodies tested apart from J9M2 bound”, the “dose dependent binding to ARH77-hBCMA 10B5 cells by FACS (MFI)” value [6] is reported as “all antibodies tested apart from J9M2 bound” and the KD (Human commercial BCMA [7]) is reported as “No”. For the same molecule, the ka (Cyno in house BCMA [8]; in M-1s-1 (unit assumed)) was 4.88E+05, the kd (Cyno in house BCMA [8]; in s-1 (unit assumed)) was 2.52E−04 and the off rate (Human in house BCMA; Run 2, ProteOn, recombinant human BCMA, no affinity values obtained) was “beyond the sensitivity of the assay”.

B2: S307118G03 H5L0: humanised S307118G03, VH H5 (SEQ ID NO:87) + VL L0 (SEQ ID NO:89) (antibody, V domains shown)
VH: QVQLVQSGAEVKKPGSSVKVSCKASGYTFTDYYMKWVRQAPGQGLEWIGEIYPNNGGITYNQKFKGRATLTVDKSTSTAYMELSSLRSEDTAVYYCANGYEFDYWGQGTLVTVSS
VL: B1 VL with L4M, D28G, E45K, V47L, N53S, Y71F, R92S
modifications: Humansed antibody sequence
In the case of B2, the KD (Human commercial BCMA [1]) is reported as “V weak signal”, the KD (Cyno in house BCMA [3]) is reported as “No” and the KD (Human in house BCMA; [9]) is reported as “No Analysable Binding”.

B3: S307118G03 H5L1: humanised S307118G03, VH H5 (SEQ ID NO:87) + VL L1 (SEQ ID NO:91) (antibody, V domains shown)
VH: B2 VH
VL: B1 VL with L4M, D28G, E45K, V47L, N53S, R92S
modifications: Humansed antibody sequence
With B3 the KD (Human commercial BCMA [1]) was “V weak signal”, the KD (Cyno in house BCMA [3]) was “No” and the KD (Human in house BCMA; [9]) was “No Analysable Binding”.
